Data as given in patent publication US20240277762A1 (published 2024).

Columns and labels:
[1] = biological target: T1, PRAME peptide on HLA-A*02:01 (human); assay: killing
T1 peptide: SLLQHLIGL

[2] = biological target: T2, PRAME peptide on HLA-A*02:02 (human); assay: cytokine release
T2 peptide: SLLQHLIGL

[3] = biological target: T3, PRAME peptide on HLA-A*02:04 (human); assay: cytokine release
T3 peptide: SLLQHLIGL

[4] = biological target: T4, PRAME peptide on HLA-A*02:09 (human); assay: cytokine release
T4 peptide: SLLQHLIGL

Measured: binding result

B1: T23.8-2.1-027-004 (TCR, V domains shown)
Valpha: GQQLNQSPQSMFIQEGEDVSMNCTSSSIFNTWLWYKQDPGEGPVLLIALYKAGELTSNGRLTAQFGITRKDSFLNISASIPSDVGIYFCAGLADYGGSQGNLIFGKGTKLSVKP
Vbeta: DSGVTQTPKHLITATGQRVTLRCSPRSGDLSVYWYQQSLDQGLQFLIQYYNGEERAKGNILERFSAQQFPDLHSELNLSSLELGDSALYFCASSVWASGGYEQYFGPGTRLTVT
recognises: all assays above
